Data as given in US20230399641A1.
Like-named read-outs stand apart in the source and are kept apart here.

How the values were obtained:
No hACE2 [1] = molecular target: No hACE2
No hACE2 [2] = molecular target: No hACE2; remark: listed apart in the source
No hACE2 [3] = molecular target: No hACE2; remark: listed apart in the source

Q: “receptor binding domain (RBD) of wildtype SARS-CoV-2 spike (residues 319-541) (from UniProt P0DTC2 319-541) (ligand)” was tested. Which % of cells in the PE-positive (RBD-bound) gate (No hACE2 [1]) did it give?
A: 0.17%

Q: “receptor binding domain (RBD) of HCoV-NL63 spike (residues 481-616) (from UniProt Q6Q1S2 481-616) (ligand)” was tested. Which % of cells in the PE-positive (RBD-bound) gate (No hACE2 [2]) did it give?
A: 0.37%

Q: How did the % of cells in the PE-positive (RBD-bound) gate (No hACE2 [3]) turn out when “receptor binding domain (RBD) of SARS-CoV spike (residues 306-527) (from UniProt P59594 306-527) (ligand)” was run?
A: 0.24%
